The target of the experiment is binding of FAM19A5 protein to full-length ectodomain of the LRRC4B protein (amino acids 36-576 of SEQ ID NO: 2) (Homo sapiens, UniProt Q7Z5A7). The experiment can be described thus: Competitive inhibition assay, plate coated with full-length ectodomain of LRRC4B (amino acids 36-576). Particulars: for inhibition of FAM19A5 binding to coated full-length LRRC4B ectodomain protein (in words): increasing concentrations, FAM19A5 5 ng/mL, 100 nM coat. The method in brief:
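Wells are coated with 100 nM LRRC4B ectodomain (aa 36-576), and 5 ng/mL recombinant FAM19A5 is added with competitor: LRRC4B deletion constructs at increasing concentrations, or synthetic peptides at 20 nM. After incubation at 37 °C, bound FAM19A5 is detected with HRP-conjugated anti-FAM19A5 (1-65) antibody.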

Sequence of binding of FAM19A5 protein to full-length ectodomain of the LRRC4B protein (amino acids 36-576 of SEQ ID NO: 2) (Q7Z5A7 44-132): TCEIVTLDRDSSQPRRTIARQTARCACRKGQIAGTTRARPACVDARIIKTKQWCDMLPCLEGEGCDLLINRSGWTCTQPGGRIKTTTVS

For the molecule GYTYFTTVTVETLETQPGEE [FB-20], the “inhibition of interaction between FAM19A5 and the coated LRRC4B protein fragments (in words)” value (20 nM peptide, statement covers both coats, LRRC4B (36-576) and LRRC4B (453-576)) was “significantly decreased the interaction”. For the same molecule, the “Inhibition rate (%) LRRC4B (amino acids 36-576)-hFc” value by setting is: (Table 8, 20 nM peptide, FAM19A5 5 ng/ml) 77.0%; (Table 9, deletion variants, 20 nM peptide, FAM19A5 5 ng/ml) 84.3%; (Table 10, alanine/asparagine mutants) 77.0%.

B1: LRRC4B (498-576): LRRC4B ectodomain fragment, amino acids 498-576 of SEQ ID NO: 2 (protein)
chain: QPGEEALQPRGTEKEPPGPTTDGVWGGGRPGDAAGPASSSTTAPAPRSSRPTEKAFTVPITDVTENALKDLDDVMKTTK
Turning to B1, the “inhibition of FAM19A5 binding to coated full-length LRRC4B ectodomain protein (in words)” value is recorded as “much inferior in their ability to inhibit the interaction”.

B2: LRRC4B (453-576): LRRC4B ectodomain fragment, amino acids 453-576 of SEQ ID NO: 2; FLAG-tagged or hFc-fused (protein)
chain: VSAVDPVAAGGTGSGGGGPGGSGGVGGGSGGYTYFTTVTVETLETQPGEEALQPRGTEKEPPGPTTDGVWGGGRPGDAAGPASSSTTAPAPRSSRPTEKAFTVPITDVTENALKDLDDVMKTTK
modifications: FLAG tag or human Fc
notes: FLAG-tagged or hFc-fused
Consider B2, for which the “inhibition of FAM19A5 binding to coated full-length LRRC4B ectodomain protein (in words)” value is recorded as “able to inhibit FAM19A5 protein from binding”.

The values are drawn from patent publication US20240238445A1, “INHIBITORS AND USES THEREOF” (NEURACLE SCIENCE CO., LTD., priority 2021, published 2024).
